B1: Carbonic anhydrase 12 (Homo sapiens), O43570 (protein)
chain: MPRRSLHAAAVLLLVILKEQPSSPAPVNGSKWTYFGPDGENSWSKKYPSCGGLLQSPIDLHSDILQYDASLTPLEFQGYNLSANKQFLLTNNGHSVKLNLPSDMHIQGLQSRYSATQLHLHWGNPNDPHGSEHTVSGQHFAAELHIVHYNSDLYPDASTASNKSEGLAVLAVLIEMGSFNPSYDKIFSHLQHVKYKGQEAFVPGFNIEELLPERTAEYYRYRGSLTTPPCNPTVLWTVFRNPVQISQEQLLALETALYCTHMDDPSPREMINNFRQVQKFDERLVYTSFSQVQVCTAAGLSLGIILSLALAGILGICIVVVVSIWLFRRKSIKKGDNKGVIYKPATKMETEAHA
B2: Carbonic anhydrase 5A, mitochondrial (Homo sapiens), P35218 (protein)
chain: MLGRNTWKTSAFSFLVEQMWAPLWSRSMRPGRWCSQRSCAWQTSNNTLHPLWTVPVSVPGGTRQSPINIQWRDSVYDPQLKPLRVSYEAASCLYIWNTGYLFQVEFDDATEASGISGGPLENHYRLKQFHFHWGAVNEGGSEHTVDGHAYPAELHLVHWNSVKYQNYKEAVVGENGLAVIGVFLKLGAHHQTLQRLVDILPEIKHKDARAAMRPFDPSTLLPTCWDYWTYAGSLTTPPLTESVTWIIQKEPVEVAPSQLSAFRTLLFSALGEEEKMMVNNYRPLQPLMNRKVWASFQATNEGTRS

What was measured:
[1] = substrate: O=C=O; experiment: Activity at human carbonic anhydrase XII by spectrophotometry at pH 7.5
[2] = substrate: O=C=O; experiment: Ratio of kcat to Km for human carbonic anhydrase XII
[3] = substrate: O=C=O; experiment: Activity at human carbonic anhydrase VA by spectrophotometry at pH 7.5
[4] = substrate: O=C=O; experiment: Ratio of kcat to Km for human carbonic anhydrase VA

| Protein | kcat [1] [×10⁵ /s] | kcat/Km [2] [×10⁷ /M/s] | kcat [3] [×10⁵ /s] | kcat/Km [4] [×10⁷ /M/s] |
| --- | --- | --- | --- | --- |
| B1 | 4.2 | 3.5 |  |  |
| B2 |  |  | 2.9 | 2.9 |

From ChEMBL document CHEMBL1671790, “A new β-carbonic anhydrase from Brucella suis, its cloning, characterization, and inhibition with sulfonamides and sulfamates, leading to impaired pathogen growth” (Bioorg Med Chem, 2011)
